# According to US11147834B2 (MiZ Company Limited, priority 2018, dated 2021):
# B1: ranibizumab (antibody, chains of the INN, looked up, V domains shown)
# VH: EVQLVESGGGLVQPGGSLRLSCAASGYDFTHYGMNWVRQAPGKGLEWVGWINTYTGEPTYAADFKRRFTFSLDTSKSTAYLQMNSLRAEDTAVYYCAKYPYYYGTSHWYFDVWGQGTLVTVSS
# VL: DIQLTQSPSSLSASVGDRVTITCSASQDISNYLNWYQQKPGKAPKVLIYFTSSLHSGVPSRFSGSGSGTDFTLTISSLQPEDFATYYCQQYSTVPWTFGQGTKVEIK
# modifications: Fab
# notes: an anti-VEGF drug, ranibizumab; Novartis Pharma K. K
# Assays:
# [1] = compared with H2; cited from earlier work
# [2] = test system: (wet) age-related macular degeneration; test: Case of a patient with (wet) age-related macular degeneration: hydrogen aspiration and hydrogen water, Lucentis and laser therapy; assay type: in vivo, human
# Method: A patient felt itchiness on the left eye in September 2013, took their glasses off, and covered their left eye.
# Lucentis (R) was injected in the vitreous body of the patient and the patient received laser therapy after 1 week. After additional 1 month, Lucentis (R) was re-injected.
# After 10 months, the injection was discontinued and only a test was continued. Thereafter, the patient visited the hospital once in three months and their pathological conditions were checked by a test.
# Then, the patient received the second laser therapy, and Lucentis (R) injection approximately once a month.
# The doctor recommended that the patient receive another laser therapy if the result of injection in February was bad.
# After that, the patient received Lucentis (R) injection. One week after the injection, detailed fundus examination was conducted to check their pathological conditions.
# Then, the patient daily drank 500 ml/morning and 500 ml/night of the water for 1 month.
# When the patient received Lucentis (R) injection on Apr. 11, 2018, their pathological conditions were checked. […] However, after one week, the patient was re-examined.
molecule,measurement,setting,value
"[2H][2H] [D2, deuterium]",superoxide-scavenging action,[1],stronger superoxide-scavenging action than H2
"[HH] [hydrogen, molecular hydrogen]",visual acuity of the eye with age-related macular degeneration,"[2]; after aspirating hydrogen and drinking hydrogen water, improved from 0.1",1.2
same,choroidal neovascularization (detailed fundus examination),"[2]; gaseous hydrogen about 4% by volume aspirated about 2 hours x 3 (7-day interval), February 2018, then Lucentis injection, examined one week after the injection",degeneration
B1,effects of laser therapy and Lucentis injection,[2]; during three years before initiation of hydrogen gas inhalation,no effects
same,therapeutic effect,"[2]; first course: intravitreal injection, laser therapy after 1 week, re-injection after additional 1 month",therapeutic effect appeared
same,test result after injection,[2]; injection in January 2018,very bad
same,treatment outcome,[2]; same treatment repeated two years later after worsening,not good
